The record followed here is US20240336909A1 (HARPOON THERAPEUTICS, published 2024).

Changes are numbered by the printed parent chain.

The target of one experiment is T1, cynomolgus EpCAM protein (cynomolgus monkey).
T1 construct: biotinylated in the Octet assays; also called cy EpCAM; cynomolgus monkey EpCAM
The experiment can be described thus: colorimetric ELISA. The source says:
(§1) Llamas were immunized with purified EpCAM protein expressed in Expi293 cells. A phage display library for expression of heavy variable antibody domains was constructed from circulating B cells. See van der Linden, de Geus, Stok, Bos,van Wassenaar, Verrips, and Frenken. 2000. J Immunol Methods 240:185-195. Phage clones were screened for binding to EpCAM by expressing anti-EpCAM proteins in E coli, preparing periplasmic extracts, and proteins were screened for human and cynomolgus EpCAM binding activity using a colorimetric ELISA.
(In an ELISA, binding on a coated surface is turned into a signal by an enzyme label.)

A further experiment concerns the target T2, human EpCAM protein (human, UniProt P16422 24-265).
T2 construct: biotinylated in the Octet assays; also called hu EpCAM; biotinylated human EpCAM protein
T2 sequence (looked up): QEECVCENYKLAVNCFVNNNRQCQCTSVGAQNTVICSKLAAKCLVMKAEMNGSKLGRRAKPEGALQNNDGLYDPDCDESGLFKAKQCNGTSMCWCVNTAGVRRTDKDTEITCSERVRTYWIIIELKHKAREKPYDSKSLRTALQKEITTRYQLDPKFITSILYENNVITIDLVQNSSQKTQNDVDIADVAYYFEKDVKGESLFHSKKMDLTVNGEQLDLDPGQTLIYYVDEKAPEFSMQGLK
The experiment is described as follows: colorimetric ELISA.
Source text: as §1

T1 sequence (Q1WER1 24-265): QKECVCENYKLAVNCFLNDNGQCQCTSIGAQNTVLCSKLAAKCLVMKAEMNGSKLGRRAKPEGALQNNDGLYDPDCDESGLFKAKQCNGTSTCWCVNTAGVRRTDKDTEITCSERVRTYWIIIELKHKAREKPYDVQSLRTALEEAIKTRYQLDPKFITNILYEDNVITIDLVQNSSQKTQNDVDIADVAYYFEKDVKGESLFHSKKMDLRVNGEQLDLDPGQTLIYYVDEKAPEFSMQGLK

B1: Llama anti-EpCAM single domain antibody EPL145 (VHH)
VHH: QVQLQESGGGLVQAGGSLRLSCAASGFIFRAASMGWFRQSPGNERELVATVSSGGFTNYADSVKGRFTISRDNAKNTVYLQMNSLKPEDTAVYFCGATFVRSDGHHTIYGQGTQVTVSS
notes: E. coli periplasmic extract
On to B1, for which, in the experiment with cynomolgus EpCAM protein, the “Cynomolgus EpCAM/Control” value came to 2 ratio and the ELISA absorbance came to 0.4 absorbance. In the experiment with human EpCAM protein, the ELISA absorbance came to 0.6 absorbance and the “Human EpCAM/Control” value is 3 ratio.

B2: Llama anti-EpCAM single domain antibody EPL126 (VHH)
VHH: B1 VHH with F37Y, V51I, S52N, V78G, G96A, V100L, H105Q, H106P, T107P, Y109W
notes: E. coli periplasmic extract
For B2, in the experiment with cynomolgus EpCAM protein, the “Cynomolgus EpCAM/Control” value is 4 ratio and the ELISA absorbance came to 2.8 absorbance. Moreover, in the experiment with human EpCAM protein, the ELISA absorbance came out at 3.4 absorbance and the “Human EpCAM/Control” value worked out at 5 ratio.

B3: Llama anti-EpCAM single domain antibody EPL138 (VHH)
VHH: B1 VHH with G35D, F37Y, S40F, L47S, V48I, V51I, V100L, Y109N
notes: E. coli periplasmic extract
Regarding B3, in the experiment with cynomolgus EpCAM protein, the “Cynomolgus EpCAM/Control” value is 3 ratio and the ELISA absorbance stood at 2.7 absorbance. Also, in the experiment with human EpCAM protein, the ELISA absorbance amounted to 3.1 absorbance and the “Human EpCAM/Control” value was determined as 3 ratio.

B4: Llama anti-EpCAM single domain antibody EPL118 (VHH)
VHH: B1 VHH with G55D
notes: E. coli periplasmic extract
Regarding B4, in the experiment with cynomolgus EpCAM protein, the “Cynomolgus EpCAM/Control” value worked out at 4 ratio and the ELISA absorbance was 2.9 absorbance. Moreover, in the experiment with human EpCAM protein, the ELISA absorbance was found to be 3.4 absorbance and the “Human EpCAM/Control” value was found to be 5 ratio.

B5: Llama anti-EpCAM single domain antibody EPL90 (VHH)
VHH: B1 VHH with G35A, F37Y, T50S, V51I, G55A, G65A, V100L, Y109N
notes: E. coli periplasmic extract
B5: in the experiment with cynomolgus EpCAM protein, the “Cynomolgus EpCAM/Control” value worked out at 10 ratio and the ELISA absorbance was 1.7 absorbance. Further, in the experiment with human EpCAM protein, the ELISA absorbance amounted to 1.6 absorbance and the “Human EpCAM/Control” value was 10 ratio.

B6: Llama anti-EpCAM single domain antibody EPL164 (VHH)
VHH: QVQLQESGGGLVQAGGSLRLSCAASGFIFRAASMDWYRQSPGTQPELVATISSTGFTNYANSVKGRFTISRDNAKNTVYLQMNSLKPEDTAVYFCGATFLRSDGQHSIYGQGTQVTVSS
notes: E. coli periplasmic extract
For the molecule B6, in the experiment with cynomolgus EpCAM protein, the “Cynomolgus EpCAM/Control” value stood at 34 ratio and the ELISA absorbance worked out at 2.8 absorbance. In the experiment with human EpCAM protein, the ELISA absorbance worked out at 0.6 absorbance and the “Human EpCAM/Control” value was determined as 7 ratio.

B7: Llama anti-EpCAM single domain antibody EPL159 (VHH)
VHH: QVQLQESGGGLVQAGGSLRLSCAASGFAFGNHWMYWYRQAPGRGRELVASISSGGSTNYVDSVKGRFTISRDNARNTVYLQMYSLKPEDTAVYYCGTSDNWGQGTQVTVSS
notes: E. coli periplasmic extract
Turning to B7, in the experiment with cynomolgus EpCAM protein, the “Cynomolgus EpCAM/Control” value was found to be 2 ratio and the ELISA absorbance turned out to be 0.2 absorbance.

B8: Llama anti-EpCAM single domain antibody EPL2 (VHH)
VHH: QVQLQESGGGLVQPGGSLRLSCAASESISSFIAVGWYRQAPGKERELVAGINRSGFTYYTDSVKGRFSISRDNAKNTVLLQMTSLKPEDTAVYYCNAGGLYFSNAYTQGDYWGQGTQVTVSS
notes: E. coli periplasmic extract
Regarding B8, in the experiment with cynomolgus EpCAM protein, the “Cynomolgus EpCAM/Control” value came out at 24 ratio and the ELISA absorbance was 3.6 absorbance. Further, in the experiment with human EpCAM protein, the ELISA absorbance came out at 2.2 absorbance and the “Human EpCAM/Control” value stood at 15 ratio.

B9: Llama anti-EpCAM single domain antibody EPL43 (VHH)
VHH: B8 VHH with P14T
notes: E. coli periplasmic extract
As for B9, in the experiment with cynomolgus EpCAM protein, the “Cynomolgus EpCAM/Control” value was found to be 27 ratio and the ELISA absorbance turned out to be 3.8 absorbance. Besides, in the experiment with human EpCAM protein, the ELISA absorbance is 1.8 absorbance and the “Human EpCAM/Control” value is 13 ratio.

B10: Llama anti-EpCAM single domain antibody EPL58 (VHH)
VHH: QVQLQESGGGLVQAGGSLRLSCAASGPIFSDTIRTMGWYRQAAGKQRELVATIASFPSRTNYVDSVKGRFTISRDIAKNTVYLQMDSLKPEDTAVYYCNVDLASIPTKTYWGQGTQVTVSS
notes: E. coli periplasmic extract
Turning to B10, in the experiment with cynomolgus EpCAM protein, the “Cynomolgus EpCAM/Control” value came out at 4 ratio and the ELISA absorbance was 0.5 absorbance. Further, in the experiment with human EpCAM protein, the ELISA absorbance worked out at 1.1 absorbance and the “Human EpCAM/Control” value was determined as 8 ratio.

B11: Llama anti-EpCAM single domain antibody EPL10 (VHH)
VHH: QVQLQESGGGLVQAGGSLRLSCAASGSVFRANVMGWYRQAPGKQHELVARIDPGGTTTYADPVKGRFTISRDNAKKTVYLQMNSLKPDDTAVYYCNAIILLSGGPKDYWGQGTQVTVSS
notes: E. coli periplasmic extract
As for B11, in the experiment with cynomolgus EpCAM protein, the “Cynomolgus EpCAM/Control” value was found to be 9 ratio and the ELISA absorbance was 2 absorbance. In the experiment with human EpCAM protein, the ELISA absorbance came to 2.7 absorbance and the “Human EpCAM/Control” value worked out at 12 ratio.

B12: Llama anti-EpCAM single domain antibody EPL49 (VHH)
VHH: QVQLQESGGGLVQAGGSLRLSCAPSGRTSSIFGMGWFRQAPGKEREFVASINWSGGSTSYADSVKGRFTISRDNAKNEMYLQMNSLKFEDTAVYVCAAAVLTNKPSWNFWGQGTQVTVSS
notes: E. coli periplasmic extract
As to B12, in the experiment with cynomolgus EpCAM protein, the “Cynomolgus EpCAM/Control” value came to 4 ratio and the ELISA absorbance turned out to be 0.6 absorbance. Further, in the experiment with human EpCAM protein, the ELISA absorbance worked out at 1.1 absorbance and the “Human EpCAM/Control” value is 8 ratio.

B13: Llama anti-EpCAM single domain antibody EPL74 (VHH)
VHH: QVQLQESGGGLVQAGGSLRLSCAASGSIFGINAMGWYRQAPGKQRESVAFITIGGNTNYLDSVKGRFTISRDNAKNTVYLQMNGLKPEDTAVYYCNTNPPLILTAGGLYWGQGTQVTVSS
notes: E. coli periplasmic extract
Take B13: in the experiment with cynomolgus EpCAM protein, the “Cynomolgus EpCAM/Control” value stood at 5 ratio and the ELISA absorbance was 0.7 absorbance. In the experiment with human EpCAM protein, the ELISA absorbance came to 1.4 absorbance and the “Human EpCAM/Control” value amounted to 10 ratio.

B14: Llama anti-EpCAM single domain antibody EPL78 (VHH)
VHH: QVQLQESGGGLVQPGGSLRLSCATSANRFNINVMGWYRQAPGQQRELVATINIGGSTDYADSVKGRFTISRDNAKNTVYLQLSDLKPEDTAVYYCNVKLRVSGPTGPNVYWGQGTQVTVSS
notes: E. coli periplasmic extract
In the case of B14, in the experiment with cynomolgus EpCAM protein, the “Cynomolgus EpCAM/Control” value turned out to be 11 ratio and the ELISA absorbance came out at 2 absorbance. Besides, in the experiment with human EpCAM protein, the ELISA absorbance was 3.1 absorbance and the “Human EpCAM/Control” value worked out at 17 ratio.

B15: Llama anti-EpCAM single domain antibody EPL83 (VHH)
VHH: QVQLQESGGGLVQAGGSLRLSCAVSGSIFSLNTLAWYRQAPGRQRDLIARITGGGTTVYADSVKGRFTISRDNAKNTVYLQMNSLKPEDTAVYYCNLMVRHPSGSTYEYWGQGTQVTVSS
notes: E. coli periplasmic extract
B15: in the experiment with cynomolgus EpCAM protein, the “Cynomolgus EpCAM/Control” value came out at 2 ratio and the ELISA absorbance was 1.1 absorbance. In addition, in the experiment with human EpCAM protein, the ELISA absorbance turned out to be 2 absorbance and the “Human EpCAM/Control” value turned out to be 3 ratio.

B16: Llama anti-EpCAM single domain antibody EPL82 (VHH)
VHH: QVQLQESGGGLVQAGGSLKLSCTASGTILSTMAWYRQAPGKQRELVATISRGGTTNYSDSVKGRFAISRDSTKNTVYLQMNSLKPEDTAVYYCNTPLTDYGMGYNWGQGTQVTVSS
notes: E. coli periplasmic extract
With B16, in the experiment with cynomolgus EpCAM protein, the “Cynomolgus EpCAM/Control” value is 5 ratio and the ELISA absorbance amounted to 1.1 absorbance. For the same molecule, in the experiment with human EpCAM protein, the ELISA absorbance stood at 0.9 absorbance and the “Human EpCAM/Control” value came to 4 ratio.

B17: Llama anti-EpCAM single domain antibody EPL60 (VHH)
VHH: QVQLQESGGGLVQAGGSLRLSCAASEYILSMYRMAWYRQAPGKVRELVADMSSGGTTNYADFVKGRFTISRDNDRNTVYLQMNRLQPEDTAAYYCNVAGRTGPPSYDAFNNWGQGTQVTVSS
notes: E. coli periplasmic extract
B17: in the experiment with cynomolgus EpCAM protein, the “Cynomolgus EpCAM/Control” value was found to be 33 ratio and the ELISA absorbance amounted to 3.5 absorbance. Besides, in the experiment with human EpCAM protein, the ELISA absorbance worked out at 1.1 absorbance and the “Human EpCAM/Control” value stood at 10 ratio.

B18: Llama anti-EpCAM single domain antibody EPL156 (VHH)
VHH: B17 VHH with A14P, G16A, L20V
notes: E. coli periplasmic extract
In the case of B18, in the experiment with cynomolgus EpCAM protein, the “Cynomolgus EpCAM/Control” value stood at 17 ratio and the ELISA absorbance amounted to 4 absorbance. In the experiment with human EpCAM protein, the ELISA absorbance amounted to 3.6 absorbance and the “Human EpCAM/Control” value is 16 ratio.
